Reference: the RNAGym collection of RNA variant scans (doi:10.7554/elife.80360)

B1: CPEB3 Ribozyme (parent)
chain: GGGGGCCACAGCAGAAGCGUUCACGUCGCGGCCCCUGUCAGAUUCUGGUGAAUCUGCGAAUUCUGCUGU

Variants of: B1
Test: self-cleavage, relative activity (ratio to wild type); higher = more cleavage; co-transcriptional
In the case of U36C A42G, the self-cleavage is reported as 0.77. G37U G68A showed a self-cleavage of 0.438. For G37U G68C, the self-cleavage was 0.42. G37A G48U gave a self-cleavage of 0.251. In the case of G37C U61A, the self-cleavage is reported as 0.201. Variant G37C U61G has a self-cleavage of 0.282. Variant G37C U61C has a self-cleavage of 0.223. Work on U36G U38G yielded a self-cleavage of 0.2. For U36G U38C, the self-cleavage was 0.248. With G37U A40G the self-cleavage was 0.366. With G37U A40C the self-cleavage was 0.205. In the case of G37C U64G, the self-cleavage is reported as 0.205. Work on G37A U64A yielded a self-cleavage of 0.246. G37A U64G showed a self-cleavage of 0.254. For G37A G41A, the self-cleavage was 0.231. For G37A G41C, the self-cleavage was 0.192. Work on G37A C63A yielded a self-cleavage of 0.228. Variant G37A C63U has a self-cleavage of 0.364. Work on G37A C39U yielded a self-cleavage of 0.372. With G37A C39A the self-cleavage was 0.236. G37U G50U showed a self-cleavage of 0.379. G37A U49G gave a self-cleavage of 0.37. In the case of G37U C39U, the self-cleavage is reported as 0.186. For U36G G56A, the self-cleavage was 0.246. For U36G G56U, the self-cleavage was 0.19. G37U U69C showed a self-cleavage of 0.533. G37C A52C gave a self-cleavage of 0.216. G37C A52G gave a self-cleavage of 0.264. Variant G37C U67C has a self-cleavage of 0.282. Work on U36C C66G yielded a self-cleavage of 0.621. With U36C C66A the self-cleavage was 0.603. Variant G37A U53C has a self-cleavage of 0.231. Variant U36C C63G has a self-cleavage of 0.548. For U36C C63A, the self-cleavage was 0.587. With U36C G56C the self-cleavage was 0.46. U36C G56U gave a self-cleavage of 0.696. U36C G56A showed a self-cleavage of 0.814. U36G C54U gave a self-cleavage of 0.293. For G37U G56U, the self-cleavage was 0.224. G37U G56C showed a self-cleavage of 0.206. Work on G37U G56A yielded a self-cleavage of 0.28. G37C G48A showed a self-cleavage of 0.182. G37C G48U gave a self-cleavage of 0.288. With G37C A42U the self-cleavage was 0.234. In the case of G37C U49G, the self-cleavage is reported as 0.234. G37C U49C gave a self-cleavage of 0.286. U36G U49C gave a self-cleavage of 0.146. For U36G C66G, the self-cleavage was 0.167. With U36G C66U the self-cleavage was 0.22. For U36G C66A, the self-cleavage was 0.232. Work on U36G A60U yielded a self-cleavage of 0.181. Variant G37A A52U has a self-cleavage of 0.273. For G37A A52G, the self-cleavage was 0.268. For G37A U55C, the self-cleavage was 0.216. Work on G37A U55A yielded a self-cleavage of 0.275. U36C C57G gave a self-cleavage of 0.3. Work on U36C C57A yielded a self-cleavage of 0.251. For G37U U67A, the self-cleavage was 0.293. Work on G37U U67G yielded a self-cleavage of 0.304. For G37U U67C, the self-cleavage was 0.317. G37U C45U gave a self-cleavage of 0.316. Work on G37U C45G yielded a self-cleavage of 0.286. U36G U64C gave a self-cleavage of 0.188. U36G U64G showed a self-cleavage of 0.195. Work on G37A C45U yielded a self-cleavage of 0.351. G37A C45G gave a self-cleavage of 0.281. G37C A59C gave a self-cleavage of 0.183. In the case of G37C A59G, the self-cleavage is reported as 0.234. G37A U44G showed a self-cleavage of 0.223. G37A U44C showed a self-cleavage of 0.326. Variant G37A C66U has a self-cleavage of 0.263. G37U U44A gave a self-cleavage of 0.213. G37U U44G gave a self-cleavage of 0.231. Variant G37U U43C has a self-cleavage of 0.236. G37U U43A showed a self-cleavage of 0.209. In the case of U36C A52C, the self-cleavage is reported as 0.997. With U36C A52U the self-cleavage was 0.915. In the case of G37C G65A, the self-cleavage is reported as 0.246. For G37C G65U, the self-cleavage was 0.237. Variant G37C A51C has a self-cleavage of 0.251. With G37C A51U the self-cleavage was 0.171. For U36C G65A, the self-cleavage was 0.67. In the case of U36C G65C, the self-cleavage is reported as 0.414. For G37A G56C, the self-cleavage was 0.232. G37C G68C gave a self-cleavage of 0.245. Variant G37C G68A has a self-cleavage of 0.304. With G37C G68U the self-cleavage was 0.245. For U36G U53C, the self-cleavage was 0.267. For G37C U44C, the self-cleavage was 0.187. In the case of G37A A60G, the self-cleavage is reported as 0.209. For U38A A42U, the self-cleavage was 0.817. Variant U36G U44G has a self-cleavage of 0.219. Work on U36G U44A yielded a self-cleavage of 0.246. Variant U38A A60C has a self-cleavage of 0.418. For U38A A60G, the self-cleavage was 0.563. G37A U62A showed a self-cleavage of 0.225. For G37A U62C, the self-cleavage was 0.321. Work on G37A A40C yielded a self-cleavage of 0.261. G37A A40U gave a self-cleavage of 0.244. In the case of G37A A40G, the self-cleavage is reported as 0.334. With G37U A59U the self-cleavage was 0.197. Variant U38A C54U has a self-cleavage of 0.911. Work on U36G C45G yielded a self-cleavage of 0.251. Work on U36G C45A yielded a self-cleavage of 0.276. G37U U55G showed a self-cleavage of 0.173. G37U U55C showed a self-cleavage of 0.214. With G37U U64C the self-cleavage was 0.283. Work on G37U U64A yielded a self-cleavage of 0.269. With G37C U43A the self-cleavage was 0.264. In the case of G37C U43C, the self-cleavage is reported as 0.203. G37U U53G gave a self-cleavage of 0.206. G37U U53C gave a self-cleavage of 0.252. In the case of U36C U44G, the self-cleavage is reported as 0.859. U36C U44C showed a self-cleavage of 0.688. U36C U44A showed a self-cleavage of 0.854. Variant U36G U67A has a self-cleavage of 0.0785. With U36G U67C the self-cleavage was 0.239. U38A A59U showed a self-cleavage of 0.462. Work on U38A A59G yielded a self-cleavage of 0.939. With U38A A59C the self-cleavage was 0.497. G37A A59G showed a self-cleavage of 0.36. Variant G37A A59C has a self-cleavage of 0.213. For G37U U38C, the self-cleavage was 0.239. G37U U38G gave a self-cleavage of 0.254. Work on G37U U38A yielded a self-cleavage of 0.321. U38A C39U showed a self-cleavage of 0.888. For G37U U49C, the self-cleavage was 0.335. Work on G37U U49A yielded a self-cleavage of 0.258. For G37U U49G, the self-cleavage was 0.327. Variant U38A C57U has a self-cleavage of 0.35. Work on U38A C57A yielded a self-cleavage of 0.368. G37A A42C gave a self-cleavage of 0.293. G37A A42U showed a self-cleavage of 0.275. Variant U36C G68A has a self-cleavage of 0.932. U36C G68C showed a self-cleavage of 0.991. Work on U36C U67G yielded a self-cleavage of 0.949. In the case of U36C U38G, the self-cleavage is reported as 0.244. With G37A U61A the self-cleavage was 0.202. G37A G58C gave a self-cleavage of 0.344. Variant G37A G47C has a self-cleavage of 0.308. For G37A G47A, the self-cleavage was 0.312. Variant G37A G47U has a self-cleavage of 0.36. Variant G37C A40C has a self-cleavage of 0.242. Work on G37C A40G yielded a self-cleavage of 0.181. With G37C A40U the self-cleavage was 0.267. With G37U G48U the self-cleavage was 0.322. In the case of G37U G48A, the self-cleavage is reported as 0.388. Work on U36G U55A yielded a self-cleavage of 0.238. G37A G68A gave a self-cleavage of 0.377. For G37A G68U, the self-cleavage was 0.385. In the case of G37A U67A, the self-cleavage is reported as 0.389. Work on G37U C54G yielded a self-cleavage of 0.168. In the case of G37U C54A, the self-cleavage is reported as 0.227. U38A A40U showed a self-cleavage of 0.692. Variant U36G G37U has a self-cleavage of 0.199. Variant U36G G37A has a self-cleavage of 0.198. With U36G G37C the self-cleavage was 0.22. G37U A42G showed a self-cleavage of 0.234. Variant G37U A42U has a self-cleavage of 0.246. In the case of G37U A42C, the self-cleavage is reported as 0.256. In the case of G37C U53A, the self-cleavage is reported as 0.256. For U36C G48C, the self-cleavage was 0.948. U36C G48A showed a self-cleavage of 0.94. U36C G48U showed a self-cleavage of 0.981. U36C C54A gave a self-cleavage of 0.736. In the case of U36C C54U, the self-cleavage is reported as 0.973. Variant U36C C54G has a self-cleavage of 0.765.
